Experiment: yeast display, Sf9 membrane polyspecificity reagent, FACS + sequencing; frameworks hold sequencing errors
Summary of the method: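 Using colony PCR, genes from sorted yeast display clones were amplified, then sequenced on MiSeq at 2 × 250 and filtered by CDR length. The clones had been stained with 10% biotinylated, detergent-solubilized Sf9 membrane reagent for 1 hour at 4 °C and sorted by FACS into low and high (top ~1%) gates on anti-HA and streptavidin fluorescence. Polyreactivity labels come from the gate of origin.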
For “QVQLVESGGGLVQAGGTLRLSCAASGSTFLINAMGWYRQAPGKERELVAAISWGGGSTYYADSVKGRFTISRDNGKNSVDLQMNRLTPEDTAVYYCAARYWYRVDYWGQGTQVTVSS”, the “polyreactivity (PSR sort gate)” value was “high polyreactivity”. In the case of “QVQLVESGGGLVQAGGTLRLSCAASGYTLKWYTMGWYRQAPGKERELVATIRRGGGTYYADSVKGRFTISRDNAKNTVYLQMNSLKPVDTPVYYCAAEWSSVYNYDYWGQGTQVTVSS”, the “polyreactivity (PSR sort gate)” value is reported as “low polyreactivity”. In the case of “QVQLVESGGGLVQAGGTLRLSCAASVFTFYYNTMGWYRQAPGKERELVAGIDISGSSTYADSVKGRFTISRDNAKNTVYLQMNSLKPEDTAVYYCAAVYFWGMDYWGQGTQVTVSS”, the “polyreactivity (PSR sort gate)” value is reported as “low polyreactivity”. With “QVQLVESGGGLVQAGGTLRLSCAASVSTIAQNAMGWYRQAPGKEREFVAAITGTVGSTYYADSVKGRFTISRDNAKNTVYLQMKSLKPEDTAVYYCNTRGFNGRVYPYDYWGQGTQVTVSS” the “polyreactivity (PSR sort gate)” value was “low polyreactivity”. For “QVQLVESGGGLVQAGGTLRLSCAATRSTFYPYAMGWYRQAPGKERELVAAISDGDSTNYADSVKGRFTISRDNAKNTVSLQMNSVKPEDTAVYYCNADYVRIFYSYYGYHDYDYWGQGTQVTVSS”, the “polyreactivity (PSR sort gate)” value was “low polyreactivity”. With “QVQLVESGGGLVQAGGTLRLSCADSGSTFAGNGMGWYRQAPGKERQLVAGIDVTGGSTYYADSVKGRFTISRDNAKNTVYLQMNSLKPEDTAVYYCAARVVRYGYKYYYWGQGTQVTVSS” the “polyreactivity (PSR sort gate)” value was “low polyreactivity”. In the case of “QVQLVESGGGLVQAGGTLRLSCAPSGSIFTFYAMGWYRQAPGKERELVAAITRSGGSTYYADSVKGRFTISRDNAKNTVYLQMNSLKPEDTAVYYCAKDPSSYVTYRYYYWGQGSQVTVSS”, the “polyreactivity (PSR sort gate)” value is reported as “low polyreactivity”. In the case of “QVQLVESGGGLVQAGGTLRLSCAPSGSTFYANTMGWYRPAPGKERELVATISWTGSSTYYADSVKGRFTISRDNAKNTVYLQMNSLNPEDTAVYYCNKRYYYRRNYWGQGTQVTVSS”, the “polyreactivity (PSR sort gate)” value is reported as “high polyreactivity”. In the case of “QVQLVESGGGLVQAGGTLRLSCSASGIISTYYAMGWYRQAPGKERELVAAITSGGSTYYADSVKGRFTISRDNAKNTVYLQMNSLKPEDTAVYYCATRRIYKWYRYYYWGQCTQVTVSS”, the “polyreactivity (PSR sort gate)” value is reported as “high polyreactivity”. In the case of “QVQLVESGGGLVQAGGTLRLSWAASGSNFGFYTMGWYRLAPGKERELVAAITWSDSSTYADSVKGRYTISRDNAKNTVYLQMNSLKPEDTAVYYCNADTTTVEYYPFHYYTYDYWGQGTQVTVSS”, the “polyreactivity (PSR sort gate)” value is reported as “low polyreactivity”. In the case of “QVQLVESGGGLVQAGGTLRLTCAASGLTFGSNAMGWYRTAPGKERELVAAISVSGSTYYADSVKGRFTISRDNAKNTVYLLMNSLKPEDTAVYYCATYWAAGSRSRYASWGQGTQVTVSS”, the “polyreactivity (PSR sort gate)” value is reported as “high polyreactivity”. With “QVQLVESGGGLVQAGRSLRLICAASGRILGGNTMGWYRQAPGKERELVAGISYSGGRTYYADSVQRRFTISRDNAKHTFYLQMNSLKPEDTAVYYCNVPLGRGRKIAYGYWGQGTQVTVSS” the “polyreactivity (PSR sort gate)” value was “high polyreactivity”. With “QVQLVESGGGLVQAGRSLRLICAASGRILVPYTMGWYRQAPGKERDLVAAITIGGRTTYADSVKGRLTISRDNAKNTLYLQMNIMKPEDTAVYYCAKRDWRYEWYGYDYWGQGTQVTVSS” the “polyreactivity (PSR sort gate)” value was “low polyreactivity”. With “QVQLVESGGGLVQAGRSLRLICAASGSIFDWYAMGWYRQAPGKEGELVAAISSGDSTYYADSVKGRFTISRDNAKNTVYLQMNSLKPEDTAVYYCAAVTKLSGIRYHYWGQGTQVTVSS” the “polyreactivity (PSR sort gate)” value was “low polyreactivity”. For “QVQLVESGGGLVQAGRSLRLRCPASGLTINSYAMGWYRQAPGKERELVAAIDWSGGRTYYADSVKGRFTISRDNAKNTVYLQMNSLKPEDTAVYYCAAYSRNRALRFNYWGQGTQVTVSS”, the “polyreactivity (PSR sort gate)” value was “high polyreactivity”. In the case of “QVQLVESGGGLVQAGRSLRLSCAASGFIFDWNAMGWYRQAPGKERELVAAISWSGGRTYYADSVKGRFTISRDNAKNTVYLQMNSLKPEDTAVYYCNARRYFSRDTSGYNYWGQGTQVTVSS”, the “polyreactivity (PSR sort gate)” value is reported as “high polyreactivity”. With “QVQLVESGGGLVQAGRSLRLSCAASGFIFRWYAMGWYRQAPGKERELVAGLTSGDNTYYADSVKGRFTISRDNAKNTVYLQMNSLKPEDTAVSYCAADGWLWSFTGDGWWFDYWGQGTQVTVSS” the “polyreactivity (PSR sort gate)” value was “low polyreactivity”. In the case of “QVQLVESGGGLVQAGRSLRLSCAASGFIFRYYAMGWYRQAPGKETELVAAIRGGGSTYYADSVKGRFTISRDNAKNTVYLQMKSLNPEDTAVYYCAVRWVSRFGISSYDYWGQGTQVTVSS”, the “polyreactivity (PSR sort gate)” value is reported as “high polyreactivity”. In the case of “QVQLVESGGGLVQAGRSLRLSCAASGFIFWSNTKGWYRQAPGKERELVAAISYSGARTYYADSVKGRFTISRDNAKNTVYLLMNSLKPEDTAVYDCAAYLWGTHDRMDYWGQGTQVTVSS”, the “polyreactivity (PSR sort gate)” value is reported as “high polyreactivity”. For “QVQLVESGGGLVQAGRSLRLSCAASGIIFEWNGMGWYRQAPGKERELVAALPWSGGSTYYADSVKGRFTISRDNAKNTVYLQMNSLKPEDTAVYYCNAYWKDDFEDGPGRRGMDYWGQGSQVTVSS”, the “polyreactivity (PSR sort gate)” value was “low polyreactivity”. In the case of “QVQLVESGGGLVQAGRSLRLSCAASGITFESYAMGWYRQAPGKEREFVAAISRSSGSTYYADSVKGRFTISRDNAKNTVYLQMNSLKPEDTAVYYCATRSFRDDGFGRYYYWGQGTLVTVSS”, the “polyreactivity (PSR sort gate)” value is reported as “high polyreactivity”. For “QVQLVESGGGLVQAGRSLRLSCAASGLIFYCYVMGWYRQAPRKERELVAGISRNSGSTYYADSVKGRFTISRDNAKNTVYLQMNSLKPEDTAVYYCAKAYYRRYAAPGYDYWGQVTQVTVSS”, the “polyreactivity (PSR sort gate)” value was “low polyreactivity”. In the case of “QVQLVESGGGLVQAGRSLRLSCAASGLTFSAYAMGWYRQAPGKEREFVAAITDSDGSTYYADSVKGRFTITRDNAKNTVYLQMNSLKPEDTAVYYCAASGSWYYGNWSGGYDYWGQGTQVTVSS”, the “polyreactivity (PSR sort gate)” value is reported as “low polyreactivity”. With “QVQLVESGGGLVQAGRSLRLSCAASGRIFRQNAMGWYRPAPGKETELVAAIDWNGTSTYADSVKGRFTISRDNAKNTVYFQLNSLKPVDTAVYYCTARYGRTSPDGDYWGQGTQVTVSS” the “polyreactivity (PSR sort gate)” value was “low polyreactivity”. With “QVQLVESGGGLVQAGRSLRLSCAASGRNFTYYAMGWDRQAPGKERELVAAISGSAGSTYYADSVKGRFTISRDNAKNTVYLQMNSLKPEDTAVYYCNAVLVRQRDRGGYWGQGTQVTVSS” the “polyreactivity (PSR sort gate)” value was “high polyreactivity”. In the case of “QVQLVESGGGLVQAGRSLRLSCAASGRTFGGNAMGWYRQAPGKERELVAAIDQSGGSTYYADSVKGRFTISRDNAKNTVYLQMNSLKPEDTAVYYCATHDGGTYYVREPNVKYDYWGQVTQVTVSS”, the “polyreactivity (PSR sort gate)” value is reported as “low polyreactivity”. For “QVQLVESGGGLVQAGRSLRLSCAASGRTMNGNAMGWYRQAPGKERELVAAITRGGSTYYADSVKGRFTISRDNEKNSVYLQMYSLKPEVTAVYYCAADARYTGYYYWGQGTQVTVSS”, the “polyreactivity (PSR sort gate)” value was “high polyreactivity”. In the case of “QVQLVESGGGLVQAGRSLRLSCAASGSIFPGNAMGWYRQAPGKERELVASINWSGGSTYYADSVKGRFTISRDNAKNTVYLQMNSLKPEDTAVYYCNADPGYYDYDYWGQVTQVTVSS”, the “polyreactivity (PSR sort gate)” value is reported as “low polyreactivity”. With “QVQLVESGGGLVQAGRSLRLSCAASGSIFRYYAMGWYRQAPGKERELVAAISSSGGSTYYADSVKGRFTISRDNAKNTVYLQMNSLKPEDTAVYYCAAVWLSGYGDNYWGQGTQVTVSS” the “polyreactivity (PSR sort gate)” value was “high polyreactivity”. In the case of “QVQLVESGGGLVQAGRSLRLSCAASGSILGYYAMGWYRQAPGKERELVAITSGDSTYYADSVNGRFTISRDNAKNTVYLQMNSLKPEDTAVYYCAAEGQNEGYDYWGQGTKVTVSS”, the “polyreactivity (PSR sort gate)” value is reported as “high polyreactivity”. For “QVQLVESGGGLVQAGRSLRLSCAASGSTFPVNTMGWYRQAPGKERELVAAITKNGANTYYADSVKGRFTISRDNAKNTVYLQMNSLKPEYTAVYYCAALYVYGKSYSRWLVELDYWGQGTQVTVSS”, the “polyreactivity (PSR sort gate)” value was “low polyreactivity”. In the case of “QVQLVESGGGLVQAGRSLRLSCAASGSTFSSYGMGWYRQAPGKDRELDASITIRGGSTYYADSVKGRFTISRDNAKTTVCIQMNSLKPEDTAVYYCAADVTNRGTWVIYGYYYWGQGTQVTVSS”, the “polyreactivity (PSR sort gate)” value is reported as “low polyreactivity”.
